T1: human IL-11 (AAH12506.1, Pro22-Leu199) (human, UniProt P20809 22-199)
T1 construct: The range Pro22-Leu199 counts on AAH12506.1; The Octet runs say only 'human IL-11'; also called hIL-11
T1 chain: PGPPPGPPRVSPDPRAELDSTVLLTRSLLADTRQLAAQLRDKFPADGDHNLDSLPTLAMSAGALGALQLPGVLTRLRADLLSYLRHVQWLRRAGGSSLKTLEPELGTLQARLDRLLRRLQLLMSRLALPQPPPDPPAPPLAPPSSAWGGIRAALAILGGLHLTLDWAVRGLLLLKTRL

T2: IL-11 (Cat. 12225-HNCE, Sino Biological Inc.) (UniProt P20809 22-199, limits assumed)
T2 sequence (looked up): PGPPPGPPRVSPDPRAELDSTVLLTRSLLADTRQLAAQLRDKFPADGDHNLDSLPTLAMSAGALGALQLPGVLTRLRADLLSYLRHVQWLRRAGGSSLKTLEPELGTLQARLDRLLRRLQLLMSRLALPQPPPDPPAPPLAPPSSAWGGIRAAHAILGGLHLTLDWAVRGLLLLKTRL

B1: hz18A10-VHm5 + hz18A10-VLm9 (antibody, V domains shown)
VH: EVQLVQSGAEVKKPGASVKVSCKASGYTFITYNMDWVRQAPGQGLEWMGTIYPGNGDTSYNQKFKGRVTMTRDTSTSTAYMELSSLRSEDTAVYYCARADLHFLDYWGQGTLVTVSS
VL: DIQMTQSPSSLSASVGDRVTITCKASQSVYSDVAWYQQKPGKAPKLLIYSASNRYTGVPSRFSGSGSGTDFTFTISSLQPEDIATYYCQHDYSSPYTFGQGTKLEIK
notes: Constant regions not restated for this antibody
B2: hz18A10-VHm11 + hz18A10-VLm19 (antibody, V domains shown)
VH: EVQLVQSGAEVKKPGASVKVSCKASGYTFTHYNMDWVRQAPGQGLEWMGTIYPGNGDTSYNQKFKGRVTMTRDTSTSTVYMELSSLRSEDTAVYYCARGDLYALDYWGQGTLVTVSS
VL: DIQMTQSPSSLSASVGDRVTITCKASQSVYRDVAWYQQKPGKAPKLLIYSASNRYTGVPSRFSGSGSGTDFTFTISSLQPEDIATYYCQHDYSSPYTFGQGTKLEIK
notes: as for B1
B3: hz18A10-VHm12 + hz18A10-VLm19 (antibody, V domains shown)
VH: EVQLVQSGAEVKKPGASVKVSCKASGYTFTHYDMDWVRQAPGQGLEWMGTIYPGNGDTSYNQKFKGRVTMTRDTSTSTVYMELSSLRSEDTAVYYCARGDLYALDYWGQGTLVTVSS
VL: DIQMTQSPSSLSASVGDRVTITCKASQSVYRDVAWYQQKPGKAPKLLIYSASNRYTGVPSRFSGSGSGTDFTFTISSLQPEDIATYYCQHDYSSPYTFGQGTKLEIK
notes: as for B1
B4: hz18A10-VHm20 + hz18A10-VLm19 (antibody, V domains shown)
VH: EVQLVQSGAEVKKPGASVKVSCKASGYTFTHYNMDWVRQAPGQGLEWMGTIYPGQGDTSYNQKFKGRVTMTRDTSTSTVYMELSSLRSEDTAVYYCARGDLYALDYWGQGTLVTVSS
VL: DIQMTQSPSSLSASVGDRVTITCKASQSVYRDVAWYQQKPGKAPKLLIYSASNRYTGVPSRFSGSGSGTDFTFTISSLQPEDIATYYCQHDYSSPYTFGQGTKLEIK
notes: as for B1
B5: hz18A10-VHm6 + hz18A10-VLm9 (antibody, V domains shown)
VH: EVQLVQSGAEVKKPGASVKVSCKASGYTFNHYDMDWVRQAPGQGLEWMGTIYPGNGDTSYNQKFKGRVTMTRDTSTSTVYMELSSLRSEDTAVYYCARGDLYALDYWGQGTLVTVSS
VL: DIQMTQSPSSLSASVGDRVTITCKASQSVYSDVAWYQQKPGKAPKLLIYSASNRYTGVPSRFSGSGSGTDFTFTISSLQPEDIATYYCQHDYSSPYTFGQGTKLEIK
notes: as for B1
B6: hz18A10-VHm8 + hz18A10-VLm19 (antibody, V domains shown)
VH: EVQLVQSGAEVKKPGASVKVSCKASGYTFTTYDMHWVRQAPGQGLEWMGTIYPGNGDTSYNQKFKGRVTMTRDTSTSTVYMELSSLRSEDTAVYYCARGDLYALDYWGQGTLVTVSS
VL: DIQMTQSPSSLSASVGDRVTITCKASQSVYRDVAWYQQKPGKAPKLLIYSASNRYTGVPSRFSGSGSGTDFTFTISSLQPEDIATYYCQHDYSSPYTFGQGTKLEIK
notes: as for B1
B7: hz18A10-VHm14 + hz18A10-VLm19 (antibody, V domains shown)
VH: EVQLVQSGAEVKKPGASVKVSCKASGYTFTHYQMDWVRQAPGQGLEWMGTIYPGNGDTSYNQKFKGRVTMTRDTSTSTVYMELSSLRSEDTAVYYCARGDLYALDYWGQGTLVTVSS
VL: DIQMTQSPSSLSASVGDRVTITCKASQSVYRDVAWYQQKPGKAPKLLIYSASNRYTGVPSRFSGSGSGTDFTFTISSLQPEDIATYYCQHDYSSPYTFGQGTKLEIK
notes: as for B1
B8: hz18A10-VHm9 + hz18A10-VLm19 (antibody, V domains shown)
VH: EVQLVQSGAEVKKPGASVKVSCKASGYTFTTYDMSWVRQAPGQGLEWMGTIYPGNGDTSYNQKFKGRVTMTRDTSTSTVYMELSSLRSEDTAVYYCARGDLYALDYWGQGTLVTVSS
VL: DIQMTQSPSSLSASVGDRVTITCKASQSVYRDVAWYQQKPGKAPKLLIYSASNRYTGVPSRFSGSGSGTDFTFTISSLQPEDIATYYCQHDYSSPYTFGQGTKLEIK
notes: as for B1
B9: hz18A10-VHm15 + hz18A10-VLm19 (antibody, V domains shown)
VH: EVQLVQSGAEVKKPGASVKVSCKASGYTFTHYSMDWVRQAPGQGLEWMGTIYPGNGDTSYNQKFKGRVTMTRDTSTSTVYMELSSLRSEDTAVYYCARGDLYALDYWGQGTLVTVSS
VL: DIQMTQSPSSLSASVGDRVTITCKASQSVYRDVAWYQQKPGKAPKLLIYSASNRYTGVPSRFSGSGSGTDFTFTISSLQPEDIATYYCQHDYSSPYTFGQGTKLEIK
notes: as for B1
B10: hz18A10-VHm18 + hz18A10-VLm19 (antibody, V domains shown)
VH: EVQLVQSGAEVKKPGASVKVSCKASGYTFTHYNMDWVRQAPGQGLEWMGTIYPGEGDTSYNQKFKGRVTMTRDTSTSTVYMELSSLRSEDTAVYYCARGDLYALDYWGQGTLVTVSS
VL: DIQMTQSPSSLSASVGDRVTITCKASQSVYRDVAWYQQKPGKAPKLLIYSASNRYTGVPSRFSGSGSGTDFTFTISSLQPEDIATYYCQHDYSSPYTFGQGTKLEIK
notes: as for B1
B11: hz18A10-VHm6 + hz18A10-VLm19 (antibody, V domains shown)
VH: EVQLVQSGAEVKKPGASVKVSCKASGYTFNHYDMDWVRQAPGQGLEWMGTIYPGNGDTSYNQKFKGRVTMTRDTSTSTVYMELSSLRSEDTAVYYCARGDLYALDYWGQGTLVTVSS
VL: DIQMTQSPSSLSASVGDRVTITCKASQSVYRDVAWYQQKPGKAPKLLIYSASNRYTGVPSRFSGSGSGTDFTFTISSLQPEDIATYYCQHDYSSPYTFGQGTKLEIK
notes: as for B1
B12: hz18A10-VHm10 + hz18A10-VLm19 (antibody, V domains shown)
VH: EVQLVQSGAEVKKPGASVKVSCKASGYTFNHYNMDWVRQAPGQGLEWMGTIYPGNGDTSYNQKFKGRVTMTRDTSTSTVYMELSSLRSEDTAVYYCARGDLYALDYWGQGTLVTVSS
VL: DIQMTQSPSSLSASVGDRVTITCKASQSVYRDVAWYQQKPGKAPKLLIYSASNRYTGVPSRFSGSGSGTDFTFTISSLQPEDIATYYCQHDYSSPYTFGQGTKLEIK
notes: as for B1
B13: hz18A10-VHm17 + hz18A10-VLm19 (antibody, V domains shown)
VH: EVQLVQSGAEVKKPGASVKVSCKASGYTFTHYDMDWVRQAPGQGLEWMGTIYPGEGDTSYNQKFKGRVTMTRDTSTSTVYMELSSLRSEDTAVYYCARGDLYALDYWGQGTLVTVSS
VL: DIQMTQSPSSLSASVGDRVTITCKASQSVYRDVAWYQQKPGKAPKLLIYSASNRYTGVPSRFSGSGSGTDFTFTISSLQPEDIATYYCQHDYSSPYTFGQGTKLEIK
notes: as for B1
B14: hz18A10-VHm7 + hz18A10-VLm19 (antibody, V domains shown)
VH: EVQLVQSGAEVKKPGASVKVSCKASGYTFTTYDIDWVRQAPGQGLEWMGTIYPGNGDTSYNQKFKGRVTMTRDTSTSTVYMELSSLRSEDTAVYYCARGDLYALDYWGQGTLVTVSS
VL: DIQMTQSPSSLSASVGDRVTITCKASQSVYRDVAWYQQKPGKAPKLLIYSASNRYTGVPSRFSGSGSGTDFTFTISSLQPEDIATYYCQHDYSSPYTFGQGTKLEIK
notes: as for B1
B15: hz18A10-VHm16 + hz18A10-VLm19 (antibody, V domains shown)
VH: EVQLVQSGAEVKKPGASVKVSCKASGYTFTHYDMDWVRQAPGQGLEWMGTIYPGNADTSYNQKFKGRVTMTRDTSTSTVYMELSSLRSEDTAVYYCARGDLYALDYWGQGTLVTVSS
VL: DIQMTQSPSSLSASVGDRVTITCKASQSVYRDVAWYQQKPGKAPKLLIYSASNRYTGVPSRFSGSGSGTDFTFTISSLQPEDIATYYCQHDYSSPYTFGQGTKLEIK
notes: as for B1
B16: hz18A10-VHm13 + hz18A10-VLm19 (antibody, V domains shown)
VH: EVQLVQSGAEVKKPGASVKVSCKASGYTFTHYEMDWVRQAPGQGLEWMGTIYPGNGDTSYNQKFKGRVTMTRDTSTSTVYMELSSLRSEDTAVYYCARGDLYALDYWGQGTLVTVSS
VL: DIQMTQSPSSLSASVGDRVTITCKASQSVYRDVAWYQQKPGKAPKLLIYSASNRYTGVPSRFSGSGSGTDFTFTISSLQPEDIATYYCQHDYSSPYTFGQGTKLEIK
notes: as for B1

Tests used:
[1] = molecular target: T1, human IL-11 (AAH12506.1, Pro22-Leu199); assay: BLI (Octet), antibody captured, human IL-11 in solution
Procedure, shortened: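 Bio-layer interferometry on a Fortebio Octet QKe System. Antibodies (hybridoma supernatant or purified, diluted in HBS-EP+ buffer) were captured on anti-mouse IgG Fc (AMC) or anti-human Fc (AHC) biosensors. Human IL-11 at 300 nM in HBS-EP+ buffer flowed over, with 300 seconds association and 300 seconds dissociation. Blank-subtracted curves were fitted to a 1:1 Langmuir binding model to derive kon, koff and Kd.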

[2] = molecular target: T2, IL-11 (Cat. 12225-HNCE, Sino Biological …); assay: cell-based or functional assay

Binder	Kd [1]	koff [1]	kon [1]	Blocking activity (IC50), STAT3-luc reporter [2]
B1	1.15 nM	0.000732 s⁻¹	639000 M⁻¹ s⁻¹	11.6 µg/mL
B2	0.138 nM	0.000119 s⁻¹	862000 M⁻¹ s⁻¹	0.112 µg/mL
B3	0.185 nM	0.000173 s⁻¹	934000 M⁻¹ s⁻¹	0.011 µg/mL
B4	0.22 nM	0.000227 s⁻¹	1.03e+06 M⁻¹ s⁻¹	0.061 µg/mL
B5	0.00718 nM	7.17e-06 s⁻¹	999000 M⁻¹ s⁻¹	0.034 µg/mL
B6	1.44 nM	0.0011 s⁻¹	760000 M⁻¹ s⁻¹	8.64 µg/mL
B7	0.678 nM	0.000485 s⁻¹	716000 M⁻¹ s⁻¹	1.03 µg/mL
B8	0.538 nM	0.000448 s⁻¹	833000 M⁻¹ s⁻¹	0.99 µg/mL
B9	0.346 nM	0.000263 s⁻¹	760000 M⁻¹ s⁻¹	0.511 µg/mL
B10	0.313 nM	0.000354 s⁻¹	1.13e+06 M⁻¹ s⁻¹	0.79 µg/mL
B11	0.213 nM	0.000194 s⁻¹	911000 M⁻¹ s⁻¹	0.017 µg/mL
B12	0.235 nM	0.000216 s⁻¹	917000 M⁻¹ s⁻¹	0.136 µg/mL
B13	0.00708 nM	8.23e-06 s⁻¹	1.16e+06 M⁻¹ s⁻¹	0.013 µg/mL
B14	0.105 nM	0.000113 s⁻¹	1.08e+06 M⁻¹ s⁻¹	1.22 µg/mL
B15	0.0956 nM	0.00012 s⁻¹	1.26e+06 M⁻¹ s⁻¹	0.034 µg/mL
B16	0.203 nM	0.000148 s⁻¹	729000 M⁻¹ s⁻¹	0.338 µg/mL
